# Test results published in publication PMC2782731.
# B1: CG2064 (Drosophila melanogaster) (protein)
# chain: MCIFIDCLLSPLIMWPATIGVGIYFLKEYMQGGKFTKDTDETGKVFIVTGANTGIGKETALEIARRGGTVYLACRDMNRCEKARKDIIKETNNQNIFSRELDLSSLDSIRKFVDGFKKEQPKLHVLINNAGVMRCPKTLTKDGYELQLGVNHIGHFLLTNLLLDVLKNSAPSRIVVVSSLAHARGSINVADLNSEKSYDEGLAYSQSKLANVLFTRELAKRLEGSGVTVNALHPGVVDTELARNWAFFQTNLVKFFLKPMIWPLLKTPKSGAQTSIYAALDPELKNISGLYFSDCKPKPVASGALDDKVAKFLWAESEKWTGLDKLEANN
# B2: CG2065 (Drosophila melanogaster) (protein)
# chain: MQGGQFTKQTDETGKVFIVTGANTGIGKETVLEIAKRGGTVYMACRDMNRCEKARQDIIRETNNQNIFSRELDLSSLESIRKFAAGFKKEQDKLHVLINNAGVMHCPRTLTKDGFEMQLGVNHMGHFLLTHLLLDVLKKTAPSRIVNVSSLVHTQGFIKTADLNSEKSYSRIGAYSQSKLANVLFTRELAKRLEGTGVTTNSLHPGAVDTELSRNWKFLKHPFAQLLLKPLLWVLFKTPRNGAQTTLYAALDPALKDVSGLYFSDCQPKEVSAAAQDDKTGKFLWAESEKWTGVNSTKVD
# B3: CG30491 (Drosophila melanogaster) (protein)
# chain: MSLFAFLKSRTAFWLSFTGTTTGLAFFVKDLMQGGQFTKETNETGKVFIVTGANTGIGKETVREIAKRGGTVYMACRNLKKCEEAREEIVLETKNKYVYCRQCDLASQESIRHFVAAFKREQEHLHVLINNAGVMRCPRSLTSDGIELQLGVNHMGHFLLTNLLLDLLKKSSPSRIVNVSSLAHTRGEINTGDLNSDKSYDEGKAYSQSKLANVLFTRELAKRLEGTNVTANALHPGVVDTEIIRHMGFFNNFFAGLFVKPLFWPFVKTPRNGAQTSLYVALDPELEKVTGQYFSDCKLKEMAPAATDTQTAKWLWAVSEKWTKPTMIKIQ
# B4: CG3842 (Drosophila melanogaster) (protein)
# chain: MSEAATPPGSVPGTVFPPGFDPTAESVEKTLCFRGFWAWAVLIFLIVLGILLFMWLLRKCIQGPAYRKANRIDGKVVIVTGCNTGIGKETVLELAKRGARVYMACRDPGRCEAARLDIMDRSRNQQLFNRTLDLGSLQSVRNFVERFKAEESRLDILINNAGVMACPRTLTADGFEQQFGVNHLGHFLLTNLLLDRLKHSSPSRIVVVSSAAHLFGRINREDLMSEKNYSKFFGAYSQSKLANILFTLKLSTILKDTGVTVNCCHPGVVRTEINRHFSGPGWMKTALQKGSLYFFKTPKAGAQTQLRLALDPQLEGSTGGYYSDCMRWPLFPWVRNMQTADWLWRESEKLLGLPPLEPPPPVQSPTQNGNGTQNGNGSSSASASASSNNPASREMQSVETVVVNRS
# B5: CG2070 (Drosophila melanogaster) (protein)
# chain: MSAPTDYLFCPLAYGSALSAIGIYLLRQYMQGGQFTTKTNETGRVAIVTGCNQGIGKETVLELARRGATVYMACRDMKKCENARREIIKATNNQNIFARQLDLCSMKSIRNFAAGFKREQNKLHILINNAGIMDCPKMLTEDGFEMQIGVNHMGHFLLTLLLLDVLKSSAPSRVVVLSSIAHRFGRIKRDDLNSEKSYDRKMAYCQSKLANVLFTRELAKRLSGTGVTVNALHPGVVNTELFRNTPFLGSWFGKLLIAPIIWIFIKTARNGAQTTLYAALDPSLEKVSGRYFSDCKQKHVGSAAQYDDDAQFLWAESEKWTGINI
# Substrate: CC1=C(/C=C/C(C)=C/C=C/C(C)=C/C=O)C(C)(C)CC(O)C1
# Assay: HPLC of 3-hydroxyretinol formed, microsomes of Sf9 cells
# Assay type: biochemical, Drosophila melanogaster
# Conditions: apparent; 1 mM NADPH; BSA-solubilized substrate; ambient temperature; reduction
Protein,Km,Vmax
B1,2.7 ± 0.9 µM,0.00045 µmol/min/mg
B2,4.4 ± 0.6 µM,0.001 µmol/min/mg
B3,3.2 ± 0.3 µM,0.029 µmol/min/mg
B4,4.1 ± 0.1 µM,0.025 µmol/min/mg

# Substrate: CC1=C(/C=C/C(C)=C/C=C/C(C)=C/C=O)C(C)(C)CCC1
# Assay: HPLC of retinol formed, microsomes of Sf9 cells
# Assay type: biochemical, Drosophila melanogaster
# Conditions: apparent; 1 mM NADPH; BSA-solubilized substrate; ambient temperature; reduction
Protein,Km,Vmax
B1,4.2 ± 1.2 µM,0.0016 µmol/min/mg
B2,0.7 ± 0.1 µM,0.0016 µmol/min/mg
B3,0.6 ± 0.1 µM,–
B5,0.4 ± 0.1 µM,0.021 µmol/min/mg
B4,0.27 ± 0.05 µM,0.007 µmol/min/mg
